Results on 1 substance are retold here after publication PMC4333385.

This data set deals with Nc1ncnc2c1ncn2[C@@H]1O[C@H](COP(=O)(O)OP(=O)(O)OP(=O)(O)O)[C@@H](O)[C@H]1O. The data set is described as follows: steady-state Pi release, MDCC-PBP stopped-flow, Hill fit. In kind it is biochemical, Escherichia coli. The settings on record: DNA-free RecQ, SF50 buffer pH 7.5, 5 mM MgCl2, 50 mM NaCl, 25 °C, Hill coefficient 1.3. The text has this: steady-state Pi release, MDCC-PBP stopped-flow, Hill fit on E. coli RecQ helicase

The kcat is the number of substrate molecules converted per active site and unit of time at saturation. For the substance “E. coli RecQ helicase (Escherichia coli K-12)”, the K0.5 amounted to 28 ± 2 µM and the kcat was determined as 0.53 ± 0.05 s⁻¹.
